The target of assay [1] is T1, cloned human β-adrenergic receptor subtype 1 (human, UniProt P08588 1-477).
For assay [2], the target named is T2, cloned human β-adrenergic receptor subtype 2 (human, UniProt P07550 1-413).
Assay [3] concerns the target T1, cloned human β-adrenergic receptor …. Description: radioligand displacement ((-)-[3H]CGP-12177), Ki from IC50 by Cheng-Prusoff. In general terms: Loss of bound radioactivity is the signal in a displacement assay; it reports binding, not function.
In assay [4] the target is T2, cloned human β-adrenergic receptor …. Described as above.

This note sets out measurements from patent US20100062980A1 (NATIONAL UNIVERSITY OF SINGAPORE, published 2010).

T1 sequence (P08588 whole entry): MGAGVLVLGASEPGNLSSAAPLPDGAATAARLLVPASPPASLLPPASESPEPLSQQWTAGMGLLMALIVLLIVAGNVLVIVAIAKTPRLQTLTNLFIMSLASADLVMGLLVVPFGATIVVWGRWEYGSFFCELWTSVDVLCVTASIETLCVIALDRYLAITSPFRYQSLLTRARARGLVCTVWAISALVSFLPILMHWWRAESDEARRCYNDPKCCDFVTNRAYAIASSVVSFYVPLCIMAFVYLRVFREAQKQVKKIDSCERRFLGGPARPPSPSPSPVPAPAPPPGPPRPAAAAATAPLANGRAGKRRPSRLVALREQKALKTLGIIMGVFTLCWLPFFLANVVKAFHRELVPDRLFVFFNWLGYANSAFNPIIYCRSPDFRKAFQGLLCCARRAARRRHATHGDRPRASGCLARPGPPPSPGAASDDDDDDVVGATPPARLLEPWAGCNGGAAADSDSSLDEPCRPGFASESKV

B1: β-cardiotoxin (ligand)
chain: RKCLNTPLPLIYTTCPIGQDKCVKMTIKKLPSKYDVIRGCIDICPKSSADVEVLCCDTNKCNK
notes: also called beta-cardiotoxin; AY354198 protein
The IC50 is the concentration that gives 50% inhibition. By Ki is commonly meant a dissociation constant, usually derived from enzyme kinetics or from competition with a known ligand. For the molecule B1, the figures for the half-inhibitory concentration (IC50) in assay [1] and in assay [2] were 10 µM and 5 µM, respectively. Further, the Ki in assay [3] is 5.3 µM; in assay [4], 2.3 µM.
